Measurements taken from publication PMC9907207 (Nature Communications, 2023).

Legend:
Assay in all cases: BLI
Details in all cases: both partners purified
SARS-CoV-1 RBD = SARS-CoV-1 RBD (SARS-CoV (SARS-CoV-1), isolate not …, UniProt P59594)
[1] = target: T1, SARS-CoV-2 RBD (residues 319-541), ancestral strain (SARS-CoV-2, UniProt P0DTC2)
T1 construct: source: Expi293, purified (Talon resin)

bat RaTG12-CoV RBD = bat RaTG12-CoV RBD (Bat coronavirus RaTG13 (printed as …, UniProt A0ABF7PLN6))

Measured: binding result

B1: GAR03, human IgG1 monoclonal antibody (antibody, V domains shown)
VH: QVQLVQSGAEVKKPGASVKVSCKASGYTFSSYDINWVRQAPGQGLEWMGWMSPNSGNTGYAQKFQGRVTMTRSTSMSTAYMELSSLRSEDTAVYFCARMSSSLTNYLDYWGQGTLVTVSS
VL: SYVLTQPPSVAVAPGQTARIRCGENDIGSKNVHWYQQKSGQAPVLVVYDDSDRPSGIPERFSGSNSGNTATLTISRVEAGDEADYYCQVWDSTGDHPDVVFGGGTKLTVL
notes: source: ExpiCHO, purified (Protein G resin)
binds: SARS-CoV-1 RBD | [1] | bat RaTG12-CoV RBD
